Target: 2019-nCoV N蛋白抗原 (2019-nCoV (新型冠状病毒)) (UniProt P0DTC9)
Assay: AMC sensor, antibody captured at 10 μg/mL, N protein antigen in serial dilution in PBST

Kd: 24.3 nM
koff: 0.00011 s⁻¹
kon: 4520 M⁻¹ s⁻¹
Substance: 对照 (antibody)
